Test results reported in patent US20040146968A1.
pKd: −log10 of the molar value.

Tests used:
[1] = target: sDR5 protein (extracellular domain of TRAIL receptor DR5, residues 1-130) (human); experiment: cell-based or functional assay
[2] = target: sDR5 protein (extracellular domain of TRAIL receptor DR5, residues 1-130) (human); experiment: SPR, BIAcore 2000, sDR5 immobilised
[3] = target: sDR5 protein (extracellular domain of TRAIL receptor DR5, residues 1-130) (human); experiment: SPR, BIAcore 2000, sDR5 amine-coupled to chip, TRAIL 300-900 nM as analyte, 1:1 model, 25° C., apparent KD

| fold change of apparent KD against wild-type TRAIL [2] [fold] | pKd [3] | Substance | cytotoxic activity on human SK-HEP-1 hepatoma cells (MTT viability, concentration giving 50% cell death) [1] [ng/mL] | cytotoxic activity on human SK-HEP-1 hepatoma cells (MTT viability, concentration giving 50% reduction of viability) [1] [ng/mL] |
| --- | --- | --- | --- | --- |
| 18 | 6.53 | TRAIL deletion mutant protein containing the deletion of residues 132-135 in the AA″ loop (ligand) | > 1000 |  |
|  | 7.80 | wild-type TRAIL protein (human, residues 114-281) (ligand) |  | 50 |
